Measurements published in article doi:10.1101/2020.05.03.074682.

Target: biotinylated C-terminal cytosolic tail of GCS
Assay: ITC

## GRASP domain of GRASP55 (recombinant, used for ITC) (domain or fragment)
  Kd: 2000 nM
